Experiments:
human BTN1A1-ECD-Fc [1] = biological target: T1, human BTN1A1-ECD-Fc (human, N-glycosylated (PNGase F sensitive)); assay: SPR (Biacore), antibody on mIgG capture chip, BTN1A1-ECD-Fc 2-64 nM
T1 construct: also called BTN1A1-Fc; hBTN1A1-Fc
Experimental: (§1) An mIgG capture chip (BIAcore™) was coated with antibody with 600 response units (RU) and BTN1A1-ECD was injected into the microfluidic channel. KD values were obtained using fitting tools of the BIAevaluation software (BIAcore). FIGS. 22A-F provide sensograms showing real-time binding of dimeric BTN1A1-ECD-Fc (2-64 nM with 2-fold dilution; FIGS. 22A, C, and E) or of monomeric BTN1A1-ECD-His (2-64 nM with 2-fold dilution; FIGS. 22B, D, and F) to STC703, STC810, or STC820 immobilized on an mIgG capture CMS chip. Flow cells without any immobilized protein were used as the controls for non-specific binding and control cell signals were subtracted from test cell signals to produce the sensograms shown in FIGS. 22A-F.
(§2) The KD values for BTN1A1-ECD-Fc or BTN1A1-ECD-His binding to STC703, STC810, and STC820 as measured by Biacore assays are provided in Table 17 below.

[2] = biological target: T2, human BTN1A1 wild type, expressed on cells (human, UniProt Q13410 27-526, glycosylated at N55 and N215 (extracellular)); assay: FACS, 293T BTN1A1 WT against 2NQ
T2 construct: also as whole-cell lysate in western blots; also called BTN1A1 WT
T2 sequence: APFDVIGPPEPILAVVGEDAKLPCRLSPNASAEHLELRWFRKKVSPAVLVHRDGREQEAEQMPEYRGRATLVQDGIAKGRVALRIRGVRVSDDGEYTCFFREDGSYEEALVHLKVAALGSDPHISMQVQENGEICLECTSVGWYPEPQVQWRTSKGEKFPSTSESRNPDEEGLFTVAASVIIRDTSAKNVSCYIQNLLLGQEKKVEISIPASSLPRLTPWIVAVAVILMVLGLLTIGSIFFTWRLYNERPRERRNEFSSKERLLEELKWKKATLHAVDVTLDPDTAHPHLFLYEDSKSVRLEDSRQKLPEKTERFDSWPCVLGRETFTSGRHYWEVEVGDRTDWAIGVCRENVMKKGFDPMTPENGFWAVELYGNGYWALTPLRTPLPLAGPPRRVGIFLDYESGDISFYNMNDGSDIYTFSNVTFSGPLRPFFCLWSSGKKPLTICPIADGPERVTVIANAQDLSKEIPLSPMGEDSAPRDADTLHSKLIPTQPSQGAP
Experimental: The glyco-specificity of monoclonal anti-BTN1A1 antibodies was characterized by dot blot analysis. Each anti-BTN1A1 mAb (0.5 μg/well loaded) was tested for binding to glycosylated BTN1A1 (PNGaseF “−”) or deglycosylated BTN1A1 (PNGaseF “+”). Non-specific antibody controls (“IgG,” 0.25 μg/well loaded) was also included in the assay. As shown in FIGS. 19A-19B, both glycosylated BTN1A1 protein and non-glycosylated BTN1A1 (BTN1A1 protein treated with PNGase F) were coated on the solid phase and tested for mAb and antigen binding affinity. […] The glyco-specificity of monoclonal anti-BTN1A1 antibodies was also characterized by FACS analysis. […] After further washing, fluorescence intensity (MFI) was measured to assess relative binding of antibodies to membrane-bound glycosylated or unglycosylated BTN1A1. […] See, e.g., FIGS. 21A-C and Table 16.

human BTN1A1-ECD-Fc [3] = biological target: T1, human BTN1A1-ECD-Fc; assay: SPR (Biacore)
Experimental: as §1, §2

B1: STC810 (antibody, V domains shown)
VH: EVQLQQSGPELVKPGASVKISCKASGYTFTHYNMDWVKQSHGKSLEWIGYIYPSNGGTGYNQKFKSRATLTVDKSSSTAYMELHSLTSEDSAVYYCARGAYHYGSSYAYWYFDVWGAGTTVTVSS
VL: DIQMTQTTSSLSASLGDRVTISCSASQDISNYLNWYQQKPDETVKLLISYTSSLHSGVPSRFSGSGSGTDYSLTISNLAPEDIATYYCQQSSKLPFTFGSGTELEIKR
notes: mouse monoclonal; kappa; also called mouse monoclonal anti-human BTN1A1 antibody STC810
With B1 the Kd (human BTN1A1-ECD-Fc [1]) was 0.92 nM, the “fold MFI on glycosylated over unglycosylated BTN1A1” value [2] was ≥ 2 fold and the “fold higher affinity than to monomeric BTN1A1-ECD-His” value (human BTN1A1-ECD-Fc [3]) was > 100 fold.

— patent US20200148768A1 (STCUBE, published 2020)
